B1: bsAb042 (bispecific antibody)
heavy 1: QVQLVQSGVEVKKPGASVKVSCKASGYTFTNYYMYWVRQAPGQGLEWMGGINPSNGGTNFNEKFKNRVTLTTDSSTTTAYMELKSLQFDDTAVYYCARRDYRFDMGFDYWGQGTTVTVSS
heavy 2: QVQLVQSGAEVKKPGASVKLSCKASGYIFTRYYMYWVKQRPGQGLEWIGEINPNNGGTKFNEKFKNRATLTVDKSISTAYMELSRLRSDDTAVYYCSREDDYDGTPFAMDYWGQGTLVTVSSGGGGSGGGGSGGGGSGGGGSDIQMTQSPSSLSASVGDRVTITCHASQNINVWLSWYQQKPGKAPKLLIYKASNLHTGVPSRFTGSGSGTDFTFTISSLQPEDIATYYCQQGQTYPYTFGQGTKLEIKGGGGSGGGGSGGGGSGGGGS
light: EIVLTQSPATLSLSPGERATLSCRASKGVSTSGYSYLHWYQQKPGQAPRLLIYLASYLESGVPARFSGSGSGTDFTLTISSLEPEDFAVYYCQHSRDLPLTFGGGTKVEIKRTVAAPSVFIFPPSDEQLKSGTASVVCLLNNFYPREAKVQWKVDNALQSGNSQESVTEQDSKDSTYSLSSTLTLSKADYEKHKVYACEVTHQGLSSPVTKSFNRGECGGGGSGGGGSGGGGSGGGGSDIQMTQSPSSLSASVGDRVTITCHASQNINVWLSWYQQKPGKAPKLLIYKASNLHTGVPSRFTGSGSGTDFTFTISSLQPEDIATYYCQQGQTYPYTFGQGTKLEIKGGGGSGGGGSGGGGSGGGGSQVQLVQSGAEVKKPGASVKLSCKASGYIFTRYYMYWVKQRPGQGLEWIGEINPNNGGTKFNEKFKNRATLTVDKSISTAYMELSRLRSDDTAVYYCSREDDYDGTPFAMDYWGQGTLVTVSS
notes: one Fab arm anti-PD-1, two scFv anti-BTN3A; not shown: IgG1 CH1-hinge-CH2-CH3; CH2-CH3 (Fc)
B2: bsAb014 (bispecific antibody)
heavy: QVQLVQSGAEVKKPGASVKLSCKASGYIFTRYYMYWVKQRPGQGLEWIGEINPNNGGTKFNEKFKNRATLTVDKSISTAYMELSRLRSDDTAVYYCSREDDYDGTPFAMDYWGQGTLVTVSSASTKGPSVFPLAPSSKSTSGGTAALGCLVKDYFPEPVTVSWNSGALTSGVHTFPAVLQSSGLYSLSSVVTVPSSSLGTQTYICNVNHKPSNTKVDKRVEPKSCDKTHTCPPCPAPEFEGGPSVFLFPPKPKDTLMISRTPEVTCVVVDVSHEDPEVKFNWYVDGVEVHNAKTKPREEQYNSTYRVVSVLTVLHQDWLNGKEYKCKVSNKALPASIEKTISKAKGQPREPQVYTLPPSREEMTKNQVSLTCLVKGFYPSDIAVEWESNGQPENNYKTTPPVLDSDGSFFLYSKLTVDKSRWQQGNVFSCSVMHEALHNHYTQKSLSLSPG
light: not shown
notes: IgG anti-BTN3A, scFv anti-PD-1
B3: bsAb018 (bispecific antibody)
heavy: EIVLTQSPATLSLSPGERATLSCRASKGVSTSGYSYLHWYQQKPGQAPRLLIYLASYLESGVPARFSGSGSGTDFTLTISSLEPEDFAVYYCQHSRDLPLTFGGGTKVEIKGGGGSGGGGSGGGGSGGGGSQVQLVQSGVEVKKPGASVKVSCKASGYTFTNYYMYWVRQAPGQGLEWMGGINPSNGGTNFNEKFKNRVTLTTDSSTTTAYMELKSLQFDDTAVYYCARRDYRFDMGFDYWGQGTTVTVSSGGGGSGGGGSGGGGSGGGGSQVQLVQSGAEVKKPGASVKLSCKASGYIFTRYYMYWVKQRPGQGLEWIGEINPNNGGTKFNEKFKNRATLTVDKSISTAYMELSRLRSDDTAVYYCSREDDYDGTPFAMDYWGQGTLVTVSSASTKGPSVFPLAPSSKSTSGGTAALGCLVKDYFPEPVTVSWNSGALTSGVHTFPAVLQSSGLYSLSSVVTVPSSSLGTQTYICNVNHKPSNTKVDKRVEPKSCDKTHTCPPCPAPEFEGGPSVFLFPPKPKDTLMISRTPEVTCVVVDVSHEDPEVKFNWYVDGVEVHNAKTKPREEQYNSTYRVVSVLTVLHQDWLNGKEYKCKVSNKALPASIEKTISKAKGQPREPQVYTLPPSREEMTKNQVSLTCLVKGFYPSDIAVEWESNGQPENNYKTTPPVLDSDGSFFLYSKLTVDKSRWQQGNVFSCSVMHEALHNHYTQKSLSLSPG
light: not shown
notes: as for B2
B4: bsAb026 (bispecific antibody)
heavy: QVQLVQSGAEVKKPGASVKLSCKASGYIFTRYYMYWVKQRPGQGLEWIGEINPNNGGTKFNEKFKNRATLTVDKSISTAYMELSRLRSDDTAVYYCSREDDYDGTPFAMDYWGQGTLVTVSSASTKGPSVFPLAPSSKSTSGGTAALGCLVKDYFPEPVTVSWNSGALTSGVHTFPAVLQSSGLYSLSSVVTVPSSSLGTQTYICNVNHKPSNTKVDKRVEPKSCDKTHTCPPCPAPEFEGGPSVFLFPPKPKDTLMISRTPEVTCVVVDVSHEDPEVKFNWYVDGVEVHNAKTKPREEQYNSTYRVVSVLTVLHQDWLNGKEYKCKVSNKALPASIEKTISKAKGQPREPQVYTLPPSREEMTKNQVSLTCLVKGFYPSDIAVEWESNGQPENNYKTTPPVLDSDGSFFLYSKLTVDKSRWQQGNVFSCSVMHEALHNHYTQKSLSLSPGGGGGSGGGGSGGGGSGGGGSQVQLVQSGVEVKKPGASVKVSCKASGYTFTNYYMYWVRQAPGQGLEWMGGINPSNGGTNFNEKFKNRVTLTTDSSTTTAYMELKSLQFDDTAVYYCARRDYRFDMGFDYWGQGTTVTVSSASTKGPSVFPLAPSSKSTSGGTAALGCLVKDYFPEPVTVSWNSGALTSGVHTFPAVLQSSGLYSLSSVVTVPSSSLGTQTYICNVNHKPSNTKVDKKVEPKSCDKTHTGGSSGSGSGSTGTSSSGTGTSAGTTGTSASTSGSGSGGGGGSGGGGSAGGEIVLTQSPATLSLSPGERATLSCRASKGVSTSGYSYLHWYQQKPGQAPRLLIYLASYLESGVPARFSGSGSGTDFTLTISSLEPEDFAVYYCQHSRDLPLTFGGGTKVEIKRTVAAPSVFIFPPSDEQLKSGTASVVCLLNNFYPREAKVQWKVDNALQSGNSQESVTEQDSKDSTYSLSSTLTLSKADYEKHKVYACEVTHQGLSSPVTKSFNRGEC
light: not shown
notes: IgG anti-BTN3A, scFab anti-PD-1; formula printed IgG(H)-VH-CH1-linker1-VL-CL-linker2-
B5: ICT01 (antibody, V domains shown)
VH: QVQLVQSGAEVKKPGASVKLSCKASGYIFTRYYMYWVKQRPGQGLEWIGEINPNNGGTKFNEKFKNRATLTVDKSISTAYMELSRLRSDDTAVYYCSREDDYDGTPFAMDYWGQGTLVTVSS
VL: DIQMTQSPSSLSASVGDRVTITCHASQNINVWLSWYQQKPGKAPKLLIYKASNLHTGVPSRFTGSGSGTDFTFTISSLQPEDIATYYCQQGQTYPYTFGQGTKLEIK
notes: also called anti-BTN3A mAb; mAb 7.2
B6: bsAb001 (bispecific antibody, human IgG1, kappa)
heavy: QVQLVQSGAEVKKPGASVKLSCKASGYIFTRYYMYWVKQRPGQGLEWIGEINPNNGGTKFNEKFKNRATLTVDKSISTAYMELSRLRSDDTAVYYCSREDDYDGTPFAMDYWGQGTLVTVSSASTKGPSVFPLAPSSKSTSGGTAALGCLVKDYFPEPVTVSWNSGALTSGVHTFPAVLQSSGLYSLSSVVTVPSSSLGTQTYICNVNHKPSNTKVDKRVEPKSCDKTHTCPPCPAPEFEGGPSVFLFPPKPKDTLMISRTPEVTCVVVDVSHEDPEVKFNWYVDGVEVHNAKTKPREEQYNSTYRVVSVLTVLHQDWLNGKEYKCKVSNKALPASIEKTISKAKGQPREPQVYTLPPSREEMTKNQVSLTCLVKGFYPSDIAVEWESNGQPENNYKTTPPVLDSDGSFFLYSKLTVDKSRWQQGNVFSCSVMHEALHNHYTQKSLSLSPGGGGGSGGGGSGGGGSGGGGSQVQLVQSGVEVKKPGASVKVSCKASGYTFTNYYMYWVRQAPGQGLEWMGGINPSNGGTNFNEKFKNRVTLTTDSSTTTAYMELKSLQFDDTAVYYCARRDYRFDMGFDYWGQGTTVTVSSGGGGSGGGGSGGGGSGGGGSEIVLTQSPATLSLSPGERATLSCRASKGVSTSGYSYLHWYQQKPGQAPRLLIYLASYLESGVPARFSGSGSGTDFTLTISSLEPEDFAVYYCQHSRDLPLTFGGGTKVEIK
light: not shown
notes: IgG anti-BTN3A, scFv anti-PD-1 (VH-VL) at heavy chain C-terminus

molecular target: T1, recombinant human BTN3A1 (human, UniProt O00481 30-254); test: SPR
T1 construct: Soluble form of the antigen used in SPR; also called rhBTN3A1; recombinant BTN3A1 protein
T1 sequence (O00481 30-254 limits assumed): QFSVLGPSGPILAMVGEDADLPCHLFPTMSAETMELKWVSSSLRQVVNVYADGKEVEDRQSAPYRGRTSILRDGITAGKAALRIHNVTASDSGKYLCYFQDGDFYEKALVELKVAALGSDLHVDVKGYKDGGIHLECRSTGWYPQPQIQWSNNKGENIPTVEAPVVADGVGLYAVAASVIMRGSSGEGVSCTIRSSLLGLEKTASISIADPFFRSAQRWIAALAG
Method: SPR measures the interactions between two or more biomolecules. In capture kinetics analysis, an antibody is immobilized onto a gold-plated prism. The immobilized antibody is referred to as the ligand. An injection of antigen, referred to as the analyte, is carried out, often as a concentration series. The captured analytes are removed from the sensor chip surface using a regenerating agent, for example a low pH or high ionic strength solution. If investigating binding to several analytes, the antibodies are recaptured from solution before each analyte titration series. The instrument records the changes in refractive indexes (due to the accumulation or depletion of mass) in time and plots the results as sensorgrams.
Affinity measurements with respect to BTN3A, PD-1 and PD-L1 were performed by SPR technology, for instance in a Carterra LSA Platform instrument using a soluble form of the antigen as the analyte and the antibody as the ligand. Binding was also assessed through in cellulo binding assays, on cell lines (e.g. HEK293T cells) genetically modified to express the targets of interest or genetically modified to extinct target expression.
The 69 produced bsAbs and control mAbs were also evaluated for their binding affinity to recombinant proteins by SPR assays. The equilibrium dissociation constant (KD) was then calculated for constructs showing detectable binding.

Kd | Binder
93 pM | B1
83 pM | B2
212 pM | B3
68 pM | B4
73 pM | B5

molecular target: T2, PD-1 at the surface of Jurkat-PD-1 cells (human, UniProt Q15116 25-288); test: cell-based or functional assay
T2 sequence (Q15116 25-288): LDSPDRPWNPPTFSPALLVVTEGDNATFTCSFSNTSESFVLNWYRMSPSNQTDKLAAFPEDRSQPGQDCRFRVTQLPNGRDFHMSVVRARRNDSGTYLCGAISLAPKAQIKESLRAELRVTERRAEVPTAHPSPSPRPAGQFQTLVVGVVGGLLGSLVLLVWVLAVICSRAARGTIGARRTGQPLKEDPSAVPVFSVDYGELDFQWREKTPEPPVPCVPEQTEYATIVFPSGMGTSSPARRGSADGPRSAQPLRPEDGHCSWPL

Jurkat-PD-1 activation at 10 nM | Jurkat-PD-1 activation at 100 nM | Binder
5.9 fold-change to medium | 1.9 fold-change to medium | B2
8 fold-change to medium |  | B6

molecular target: T3, BTN3A1 at the surface of HEK-BTN3A1 cells (human, UniProt O00481 30-513); test: flow cytometry, HEK-BTN3A1 cells
T3 construct: HEK 293T BTN2A/BTN3A KO cells transduced with a BTN3A1 expressing vector
T3 sequence (O00481 30-513 limits assumed): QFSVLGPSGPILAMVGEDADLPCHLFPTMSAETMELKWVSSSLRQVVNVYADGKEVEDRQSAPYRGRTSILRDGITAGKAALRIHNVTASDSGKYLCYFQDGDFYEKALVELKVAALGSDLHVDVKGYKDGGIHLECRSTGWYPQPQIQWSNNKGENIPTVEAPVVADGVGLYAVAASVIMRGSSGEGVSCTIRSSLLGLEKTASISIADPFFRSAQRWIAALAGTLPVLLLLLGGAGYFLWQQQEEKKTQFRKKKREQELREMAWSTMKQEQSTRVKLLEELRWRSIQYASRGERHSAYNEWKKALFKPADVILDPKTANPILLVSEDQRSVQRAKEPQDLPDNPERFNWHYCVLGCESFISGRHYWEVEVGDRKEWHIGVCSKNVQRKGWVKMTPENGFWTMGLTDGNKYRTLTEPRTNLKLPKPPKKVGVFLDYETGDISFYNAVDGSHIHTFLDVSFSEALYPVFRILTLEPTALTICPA

MFI at 10 nM | MFI at 100 nM | Binder
824000 MFI | 1.24e+06 MFI | B1
464000 MFI | 812000 MFI | B2
502000 MFI | 1.08e+06 MFI | B3
507000 MFI | 710000 MFI | B6
410000 MFI | 1.03e+06 MFI | B4
1.01e+06 MFI | 1.82e+06 MFI | B5

molecular target: T2, PD-1 at the surface of Jurkat-PD-1 cells; test: flow cytometry, Jurkat-PD-1 cells

MFI at 10 nM | MFI at 100 nM | Binder
212000 MFI | 362000 MFI | B1
165000 MFI | 290000 MFI | B2
 | 347000 MFI | B3
179000 MFI | 396000 MFI | B6
73300 MFI | 257000 MFI | B4

Source: patent US20260265379A1 (IMCHECK THERAPEUTICS, published 2026)
